Experimental data as given in article PMC7020754.

Molecular target: T1, Rv0023 (XRE family transcription regulator) (Mycobacterium tuberculosis, UniProt P9WMI3 1-256)
T1 sequence: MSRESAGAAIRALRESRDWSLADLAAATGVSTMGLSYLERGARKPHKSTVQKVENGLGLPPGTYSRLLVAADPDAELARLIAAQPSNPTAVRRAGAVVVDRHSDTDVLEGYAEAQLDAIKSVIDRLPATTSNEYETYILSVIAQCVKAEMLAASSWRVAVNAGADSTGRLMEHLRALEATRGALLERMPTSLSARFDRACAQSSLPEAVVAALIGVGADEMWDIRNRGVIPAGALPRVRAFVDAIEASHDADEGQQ
Test: EMSA; 8 pmol protein
Conditions: protein: recombinant; tags: His (implied by Ni-NTA purification; pET23a, also printed pET21b); chain copies: 2; label: 32P; blunt

B1: OL1M (dsDNA)
DNA 1: CACCCCTTATGTAGAGACGTGTGTATCGCGATTCTCTTGC
DNA 2: GCAAGAGAATCGCGATACACACGTCTCTACATAAGGGGTG
B1: no binding.

B2: OL3M (dsDNA)
DNA 1: AGAGCCCGCCACAGACAGAGACGCGTGTGCCTATGTTTCG
DNA 2: CGAAACATAGGCACACGCGTCTCTGTCTGTGGCGGGCTCT
B2: no binding.
